These results are taken from publication PMC6294630.

In the test the target is Wild-type placental protein 13/galectin-13 (Gal-13) (human) (UniProt Q9UHV8).

B1: Wild-type placental protein 13/galectin-13 (Gal-13) (natural protein)
chain: MSSLPVPYKLPVSLSVGSCVIIKGTPIHSFINDPQLQVDFYTDMDEDSDIAFRFRVHFGNHVVMNRREFGIWMLEETTDYVPFEDGKQFELCIYVHYNEYEIKVNGIRIYGFVHRIPPSFVKMVQVSRDISLTSVCVCN
B1 registered a hemagglutination of chicken erythrocytes, minimum agglutination concentration (MAC) of 25 µg/mL.
